In experiment [1] the target is T1, human DLL3 protein (screening antigen) (human, UniProt Q9NYJ7 27-492, limits assumed).
T1 construct: Biotinylated in the phage panning
T1 sequence: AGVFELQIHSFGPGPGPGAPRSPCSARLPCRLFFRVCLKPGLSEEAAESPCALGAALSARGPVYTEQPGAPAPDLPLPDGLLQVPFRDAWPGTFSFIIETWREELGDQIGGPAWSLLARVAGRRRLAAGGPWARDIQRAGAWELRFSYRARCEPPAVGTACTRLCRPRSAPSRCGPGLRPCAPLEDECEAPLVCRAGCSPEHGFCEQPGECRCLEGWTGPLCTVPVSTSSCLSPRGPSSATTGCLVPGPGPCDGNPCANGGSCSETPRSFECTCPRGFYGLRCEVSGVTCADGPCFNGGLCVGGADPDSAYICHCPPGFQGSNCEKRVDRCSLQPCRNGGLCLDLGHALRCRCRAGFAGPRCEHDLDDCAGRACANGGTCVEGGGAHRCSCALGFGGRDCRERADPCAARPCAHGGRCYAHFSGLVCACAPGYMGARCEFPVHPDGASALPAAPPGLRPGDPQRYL
As to the kind of experiment: ELISA, hybridoma supernatant. The protocol:
(§1) Spleen lymphocytes and the myeloma cells, Sp2/0 cells (ATCC® CRL-8287™), were fused by following an optimized electrofusion procedure to obtain hybridoma cells. Based on the growth density of hybridoma cells, the hybridoma culture supernatant was assayed using an ELISA method with binding to DLL3 protein and a FACS method with binding to DLL3 CHO-s cells.

Experiment [2] has as its target T2, monkey DLL3 protein (screening antigen) (cynomolgus monkey, UniProt Q9NYJ7 27-492 (human entry), limits assumed).
T2 chain: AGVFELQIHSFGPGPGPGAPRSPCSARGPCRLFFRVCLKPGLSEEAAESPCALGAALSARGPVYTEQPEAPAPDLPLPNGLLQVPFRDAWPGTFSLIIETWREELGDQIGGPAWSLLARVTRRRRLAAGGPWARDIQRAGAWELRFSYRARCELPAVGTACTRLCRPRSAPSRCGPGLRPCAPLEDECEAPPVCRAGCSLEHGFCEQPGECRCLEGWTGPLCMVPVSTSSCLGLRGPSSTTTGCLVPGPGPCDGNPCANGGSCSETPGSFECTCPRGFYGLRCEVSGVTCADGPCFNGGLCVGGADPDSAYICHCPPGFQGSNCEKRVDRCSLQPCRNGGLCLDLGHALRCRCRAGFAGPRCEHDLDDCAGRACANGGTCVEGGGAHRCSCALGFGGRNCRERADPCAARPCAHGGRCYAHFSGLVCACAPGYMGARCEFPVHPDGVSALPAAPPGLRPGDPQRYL
As to the kind of experiment: ELISA, hybridoma supernatant. The protocol: as §1
In general terms: An ELISA detects its analyte on a solid surface through an enzyme-linked reagent.

For a further experiment, the target named is T3, human DLL3 on cells (human, UniProt Q9NYJ7 27-618).
T3 construct: Endogenous on H1184 and SHP77; Cell line is named under assay; also called H1184; DLL3/H82
T3 sequence: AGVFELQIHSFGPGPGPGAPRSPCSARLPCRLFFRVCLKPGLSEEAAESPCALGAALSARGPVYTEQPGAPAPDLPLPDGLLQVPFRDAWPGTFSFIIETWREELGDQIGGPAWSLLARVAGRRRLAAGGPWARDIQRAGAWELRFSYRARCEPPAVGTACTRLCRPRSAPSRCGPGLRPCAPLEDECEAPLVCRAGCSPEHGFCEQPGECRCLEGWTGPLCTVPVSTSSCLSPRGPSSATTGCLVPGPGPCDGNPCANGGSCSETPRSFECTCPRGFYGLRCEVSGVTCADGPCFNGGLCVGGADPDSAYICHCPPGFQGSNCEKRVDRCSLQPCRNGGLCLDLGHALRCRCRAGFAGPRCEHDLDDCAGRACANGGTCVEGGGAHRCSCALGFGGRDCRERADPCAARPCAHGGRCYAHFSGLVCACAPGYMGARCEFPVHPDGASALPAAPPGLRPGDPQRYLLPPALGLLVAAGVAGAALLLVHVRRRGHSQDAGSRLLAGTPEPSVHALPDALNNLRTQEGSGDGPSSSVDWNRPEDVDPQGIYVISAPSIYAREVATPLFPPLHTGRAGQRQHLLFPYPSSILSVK
Description: FACS, DLL3 CHO-s cells, hybridoma supernatant. The protocol:
as §1
For orientation: Flow cytometry measures light scatter and fluorescence of single cells or particles in a stream.

In experiment [3] the target is T1, human DLL3 protein (screening antigen). Description: phage ELISA.
In experiment [4] the target is T2, monkey DLL3 protein (screening antigen). As to the kind of experiment: phage ELISA.

B1: mAb110 (antibody, V domains shown)
VH: EVQLQQSGPVLVKPGASVKMSCKTSGYTFTDYYMNWVKQSHGKSLEWIGIINPYNGGTSYTQKFKGKATLTVDKSSSTAYMELNSLTSEDSTVYFCARHFYDSSYLTYSTMDYWGQGTSVTVSS
VL: NIVMTQSPKSMSMSVGERVTLSCKASENVGIFVSWYQQKPKQSPKLLIYGASNRYTGVPDRFTGSGSATDFTLTISSVQAEDLADYYCGQSHSYPLTFGTGTKLELK
notes: murine hybridoma antibody (culture supernatant)
On to B1, for which the binding result (in experiment [1]; in experiment [2]; in the experiment with human DLL3 on cells) was “binds” each time.

B2: mAb30 (antibody, V domains shown)
VH: EVRLQQFGPVLVKPGASVKMSCKASGYTFTDYYMNWVKQSHGKSLEWIGIINPYNGDTSYNQKFRGKATLTVDKSSSTAYMELNSLTSEDSAVYYCARYHYGPHLEGYFDVWGTGTTLTVSS
VL: DIVMTQSPKSMSMSVGERVTLSCKASENVGYVSWYQQKPEQSPKLLIYGASNRYTGVPDRFTGSGSATDFTLTISSVQAEDLADYHCGQSYSYPLTFGSGTKLEIK
Consider B2, for which the binding result in experiment [3] and in experiment [4] was “binds” each time.

B3: mAb6 (antibody, V domains shown)
VH: EVQLQQSGPVLVKPGASVKMSCKASGYTFTDYYMNWVKQSHGKSLEWIGIINPYSGVTIYNHKFKGKATLTVDKSSNTAYMELNSLTSEDSAVYYCARQDSLLDYAMDYWGQGTSVTVSS
VL: DILMTQSPSSMSVSLGDTVSITCHASQGISGNMGWLQQKPGKSFKGLIYHGANLEDGVPSRFSGSGSGADYSLTISSLESEDFADYYCVQYAQFPYTFGGGTKLEIK
notes: as for B1
For the molecule B3, in experiment [2], the binding result is recorded as “binds”.

B4: mAb98 (antibody, V domains shown)
VH: EVQLVESGGGLVKPGGSLKLSCAASGFTFSDYGIHWVRQAPEKGLEWVAYISSGGYTIYYADTVKGRFTISRDNAKNTLFLQMTSLRSEDTAMYYCARGDYDDIFYTMDYWGQGTSVTVSS
VL: DIQMTQTTSSLSASLGDRVTISCRASRDITKFLNWYQQKPDGTVKLLIYYTSRLHSGVPSRFSGSGSGTDYSLTISNLDQEDIATYFCQQGNTLPWTFGGGTKLDIK
notes: as for B1
B4: the binding result in experiment [2] is listed as “binds”.

(Values after US20250376519A1 (JIANGSU HENGRUI PHARMACEUTICALS, published 2025).)
